Results reported in US20090060916A1 (published 2009).
Positions count from the first letter of the chain named. Values belong to the binder of their own block, whether it stands above or below them.

Key:
human IL-13 [1] = molecular target: T1, human IL-13 (human, UniProt P35225 35-146, biotinylated on the Biacore chip); assay: DOM10 RBA (IL-13 sandwich ELISA per paragraph 473)
T1 construct: also called hIL-13; recombinant human IL-13
Experimental: A MAXISORP™ plate (high protein binding ELISA plate, Nunc, Denmark) was coated overnight with 2.5 μg/ml coating antibody (Module Set, Bender MedSystems, Vienna, Austria), then washed once with 0.05% (v/v) Tween 20 in PBS before blocking with 0.5% (w/v) BSA 0.05% (v/v) Tween 20 in PBS. […] The plate was then incubated with TMB substrate (KPL, Gaithersburg, USA), and the reaction was stopped by the addition of HCl and the absorbance read at 450 nm.
These in-line fusions were constructed and expressed as described above. […] After this incubation, the level of cell proliferation was determined.

human IL-4 [2] = molecular target: T2, human IL-4 (human, UniProt P05112 25-153, biotinylated in the receptor binding assay and on the Biacore chip); assay: IL-4 RBA: ELISA, IL-4R/Fc coated, biotinylated IL-4
T2 construct: also called interleukin-4; biotinylated IL-4
T2 sequence (looked up): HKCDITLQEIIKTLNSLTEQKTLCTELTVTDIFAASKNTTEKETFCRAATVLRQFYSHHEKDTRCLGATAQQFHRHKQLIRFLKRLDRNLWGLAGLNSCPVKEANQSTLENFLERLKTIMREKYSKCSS
Source text: (§1) The wells were washed three times with 0.1% (v/v) Tween 20 in PBS, followed by three washes with PBS, before blocking with 2% (w/v) BSA in PBS. […] The reaction was stopped by the addition of HCl and the absorbance read at 450 nm.

human IL-13 [3] = molecular target: T1, human IL-13; assay: IL-13 receptor binding assay (receptor chain not stated)
human IL-4 [4] = molecular target: T2, human IL-4; assay: DOM9 RBA (IL-4 RBA)
Source text: as §1

human IL-4 [5] = molecular target: T2, human IL-4; assay: DOM9 RBA (IL-4 RBA); remark: listed apart in the source
rhesus IL-4 = molecular target: T3, rhesus IL-4 (rhesus, UniProt P51492 25-153); assay: inferred from TF-1 proliferation with rhesus IL-4
T3 sequence (looked up): T2 sequence (looked up) with K2N, D4H, T6A, Q8R, K12E, E26K, V29I, F33L, N111D
Experimental: The mixture was incubated for 72 hours at 37° C. 5% CO₂. […] 96® reagent (colorometric reagent for determining viability, Promega, Madison, USA) was then added and the number of cells per well was quantified by measuring the absorbance at 490 nm.
A dose-response of the dAb will determine the ND50 in this set up.

human IL-13 [6] = molecular target: T1, human IL-13; assay: IL-13 receptor binding assay by the legend; IL-13 sandwich ELISA by paragraph 465
human IL-4 [7] = molecular target: T2, human IL-4; assay: IL-4 RBA: ELISA, IL-4R/Fc coated, biotinylated IL-4; remark: listed apart in the source
Source text: as §1

human IL-13 [8] = molecular target: T1, human IL-13; assay: IL-13 receptor I RBA: FMAT beads, IL-13R alpha1/Fc
Experimental: The plate was incubated for seven hours before being read in the 8200 cellular detection system (Applied Biosystems).
This molecule was PEGylated via the C terminus using PEG-Maleimide with a branched 40K PEG2-MAL moiety.

human IL-13 [9] = molecular target: T1, human IL-13; assay: cell-based or functional assay
human IL-13 [10] = molecular target: T1, human IL-13; assay: assay not named ('Potency IC50')

T1 sequence (P35225 35-146 limits assumed): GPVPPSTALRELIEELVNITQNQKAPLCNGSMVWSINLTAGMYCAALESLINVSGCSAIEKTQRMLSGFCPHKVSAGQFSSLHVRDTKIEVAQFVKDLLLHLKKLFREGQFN

B3: DOM9-155-78 (other)
VL: DIQMTQSPSSLSASVGDRVTITCRASRHIGDWLHWYQQKPGKAPKLLIAWASTLDSGVPSRFSGSGSGTDFTLTISSLQPEDFATYYCLQEGWGPPTFGQGTKVEIKR
notes: Vk dAb
IC50 (human IL-4 [4]): 0.41 nM | IC50 (human IL-4 [5]): 0.456 nM | binding result (rhesus IL-4): binds

B4: DOM9-112-210-DOM10-275-1 (bispecific antibody)
chain: EVQLLESGGGLVQPGGSLRLSCAASGFTFRNFGMGWVRQAPGKGLEWVSWIISSGTETYYADSVKGRFTISRDNSKNTLYLQMNSLRAEDTAVYYCAKSLGRFDYWGQGTLVTVSSASTKGPSEVQLLESGGGLVQPGGSLRLSCAASGFTFDREEMDWVRQAPGKGLEWVSTISPSGRKTYYADSVKGRFTISRDNSKNTLYLQMNSLRAEDTAVYYCAKAYTGFDYWGQGTLVTVSS
IC50 (human IL-13 [1]): 44.9 nM

B5: DOM9-112 (ASTKGPS) DOM10-53-344 (bispecific antibody)
chain: EVQLLESGGGLVQPGGSLRLSCAASGFTFRNYGMAWVRQAPGKGLEWVSWIDASGTETYYADSVKGRFTISRDNSKNTLYLQMNSLRAEDTAVYYCAKSLGRFDYWGQGTLVTVSSASTKGPSGVQLLESGGGLVQPGGSLRLSCAASGFIFAWYDMGWVRQAPGKGLEWVSSIDWHGEVTYYADSVKGRFTISRDNSKNTLYLQMNSLRAEDTAVYYCATAEDEPGYDYWGQGTLVTVSS
notes: in-line fusion of two VH dAbs; also called dual specific ligand
IC50 (human IL-4 [2]): ~1 nM | IC50 (human IL-13 [6]): 0.12 nM

B6: DOM9-112-210 (other)
VH: EVQLLESGGGLVQPGGSLRLSCAASGFTFRNFGMGWVRQAPGKGLEWVSWIISSGTETYYADSVKGRFTISRDNSKNTLYLQMNSLRAEDTAVYYCAKSLGRFDYWGQGTLVTVSS
notes: VH dAb
IC50 (human IL-4 [5]): 0.391 nM | IC50 (human IL-4 [7]): 0.144 nM

B7: DOM10-53-343 (other)
VH: EVQLLESGGGLVQPGGSLRLSCAASGFIFAWYDMGWARQAPGKGLEWVSSIDWHGEVTYYADSVKGRFTISRDNSKNTLYLQMNSLRAEDTAVYYCATAEDEPGYDYWGQGTLVTVSS
notes: VH dAb
IC50 (human IL-13 [8]): 0.136 nM | IC50 (human IL-13 [3]): 0.23 nM

The next lines start with the values.

IC50 (human IL-13 [1]): 39.2 nM
B1: DOM10-275-1-DOM9-155-78 (bispecific antibody)
chain: EVQLLESGGGLVQPGGSLRLSCAASGFTFDREEMDWVRQAPGKGLEWVSTISPSGRKTYYADSVKGRFTISRDNSKNTLYLQMNSLRAEDTAVYYCAKAYTGFDYWGQGTLVTVSSASTKGPSDIQMTQSPSSLSASVGDRVTITCRASRHIGDWLHWYQQKPGKAPKLLIAWASTLDSGVPSRFSGSGSGTDFTLTISSLQPEDFATYYCLQEGWGPPTFGQGTKVEIKR

IC50 (human IL-4 [2]): 13 nM | IC50 (human IL-13 [3]): 0.31 nM
B2: PEGylated DOM9-112 (AST) DOM10-53-343 (bispecific antibody)
chain: EVQLLESGGGLVQPGGSLRLSCAASGFTFRNYGMAWVRQAPGKGLEWVSWIDASGTETYYADSVKGRFTISRDNSKNTLYLQMNSLRAEDTAVYYCAKSLGRFDYWGQGTLVTVSSASTEVQLLESGGGLVQPGGSLRLSCAASGFIFAWYDMGWARQAPGKGLEWVSSIDWHGEVTYYADSVKGRFTISRDNSKNTLYLQMNSLRAEDTAVYYCATAEDEPGYDYWGQGTLVTVSSC
modifications: 40K PEG2-MAL on the C-terminal cysteine
notes: in-line fusion of two VH dAbs made in Pichia pastoris; also called dual specific ligand

ND50, IL-13 induced TF-1 cell proliferation (human IL-13 [9]): 100 nM | IC50 (human IL-13 [10]): 0.1 nM | IC50 (human IL-13 [6]): 0.04 nM
B8: DOM10-53-344 (other)
VH: B7 VH with E1G, A37V
notes: VH dAb
